Measured values from patent US20260116963A1.

How the values were obtained:
[1] = target: HIS-tagged human FcRn (human) (UniProt P55899); experiment: SPR (Biacore 8K+), antibody captured on anti-human Fab CM4 chip, HIS-tagged human FcRn 9.8-5000 nM as analyte, pH 6.0, 25 C, steady-state fit
[2] = target: HIS-tagged human IL-13 (human) (UniProt P35225); experiment: BLI in-tandem epitope binning (Octet RH96): HIS-tagged human IL-13 on anti-penta-HIS biosensors, saturated with 200 nM tralokinumab-hIgG1-YTE, then 200 nM isotype-hIgG1-YTE as competing antibody; shaded cell (non-binding, <=0.1 nm)
HIS-tagged human IL-13 (human), sequence (P35225 other isoform, or with tags, fused parts or gaps limits assumed): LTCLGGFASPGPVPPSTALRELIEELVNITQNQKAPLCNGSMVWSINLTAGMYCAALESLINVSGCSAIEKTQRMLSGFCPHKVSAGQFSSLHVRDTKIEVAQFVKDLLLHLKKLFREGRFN

[3] = target: HIS-tagged human IL-13 (human) (UniProt P35225); experiment: BLI in-tandem epitope binning (Octet RH96): HIS-tagged human IL-13 on anti-penta-HIS biosensors, saturated with 200 nM AbG, then 200 nM isotype-hIgG1-YTE as competing antibody; shaded cell (non-binding, <=0.1 nm)
[4] = target: HIS-tagged human IL-13 (human) (UniProt P35225); experiment: BLI in-tandem epitope binning (Octet RH96): HIS-tagged human IL-13 on anti-penta-HIS biosensors, saturated with 200 nM Ref1, then 200 nM isotype-hIgG1-YTE as competing antibody; shaded cell (non-binding, <=0.1 nm)
[5] = target: HIS-tagged human IL-13 (human) (UniProt P35225); experiment: BLI in-tandem epitope binning (Octet RH96): HIS-tagged human IL-13 on anti-penta-HIS biosensors, first exposed to 200 nM isotype-hIgG1-YTE as saturating antibody, then 200 nM isotype-hIgG1-YTE as competing antibody; shaded cell (non-binding, <=0.1 nm)

HIS-tagged human FcRn (human), sequence (P55899 24-297 limits assumed, chain 1 of 2): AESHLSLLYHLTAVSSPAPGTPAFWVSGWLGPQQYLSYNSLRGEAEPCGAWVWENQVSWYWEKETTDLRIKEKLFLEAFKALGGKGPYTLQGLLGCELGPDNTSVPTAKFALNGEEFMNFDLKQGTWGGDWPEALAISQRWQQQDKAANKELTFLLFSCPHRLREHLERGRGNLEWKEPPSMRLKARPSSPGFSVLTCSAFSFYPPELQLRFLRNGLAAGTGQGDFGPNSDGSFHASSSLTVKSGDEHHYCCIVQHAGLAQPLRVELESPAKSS
HIS-tagged human FcRn (human), sequence (chain, as listed by the source limits assumed, chain 2 of 2): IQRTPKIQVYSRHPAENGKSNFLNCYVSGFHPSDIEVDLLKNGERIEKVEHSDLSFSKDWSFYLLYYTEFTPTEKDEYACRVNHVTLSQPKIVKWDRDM

Substance	Kd [1] [µM]	BLI response of the competing antibody [2] [nm]	BLI response of the competing antibody [3] [nm]	BLI response of the competing antibody [4] [nm]	BLI response of the competing antibody [5] [nm]
isotype-hIgG1-YTE-TM (antibody)	0.156				
isotype-hIgG1 (antibody)	1.16				
isotype-hIgG4 (antibody)	1.19				
isotype-hIgG1-YTE (antibody)	0.155	-0.023	-0.018	-0.036	0
